The values that follow come from patent publication US20180118802A1.

For one experiment, the target named is 8D6 CR12 (human) (UniProt Q9NPF0). The experiment is described as follows: solid-phase binding assay (FIG. 10).
For the next experiment, the target named is LRP2 CR89 (human) (UniProt P98164). The experiment is described as follows: solid-phase binding assay, CR protein coated, anti-RAP detection.
The target in experiment [1] is CR pair used to test the MatRAP1 truncations (not named). The experiment is described as follows: solid-phase binding assay of truncated variants (FIG. 9).

8D6 CR12 (human), sequence (Q9NPF0 other isoform, or with tags, fused parts or gaps): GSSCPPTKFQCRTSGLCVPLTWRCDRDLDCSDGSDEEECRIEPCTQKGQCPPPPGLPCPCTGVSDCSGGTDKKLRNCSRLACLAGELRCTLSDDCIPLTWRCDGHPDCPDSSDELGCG
LRP2 CR89 (human), sequence (P98164 1025-1102): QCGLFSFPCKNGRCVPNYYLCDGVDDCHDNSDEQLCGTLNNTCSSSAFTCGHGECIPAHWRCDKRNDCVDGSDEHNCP
MatRAP1 N-42, sequence (P30533 other isoform, or with tags, fused parts or gaps): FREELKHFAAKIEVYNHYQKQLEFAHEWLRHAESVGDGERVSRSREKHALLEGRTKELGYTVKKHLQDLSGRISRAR

“320RAP1 truncated form (identical truncations, amino acids 243-313) (from UniProt P30533 277-347) (ligand)” showed a fold improvement in affinity against the full-length variant with 8D6 CR12 (human) of 3.5 fold.

As for “MegaRAP1 d3 Y249H (from UniProt P30533 235-353) (ligand)”, the % max with LRP2 CR89 (human) came out at 35%.

In experiment [1], “MatRAP1 amino acids 243-313 (best truncated variant, 71 amino acids) (from UniProt P30533 277-347) (ligand)” showed a fold increase in affinity over MatRAP1 N-42 of 4 fold and a fold increase in affinity over the full-length d3 variant of 12 fold.

Take “MatRAP1 N-42 (from UniProt P30533 277-353) (ligand)”: the fold increase in affinity over the full-length d3 variant in experiment [1] amounted to 3 fold.
